Experimental data from the supplement of paper PMC10567573.

B1: ATE1 (parent)
chain: DYFPSEDFYRCGYCKNESGSRSNG
B2: FADS1 (parent)
chain: LNFQIEHHLFPTMPRHNYHKVAPL

Variants of: B1
Assay: protein stability index of a GFP-peptide fusion (GPS, HEK-293T) (PSI 1-6); higher = more stable
Conditions: c terminus: a fixed tail appended
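Note: lentivirally expressed fusions sorted by FACS into six bins by GFP to DsRed ratio, PSI derived from sequencing read proportions per bin multiplied by bin number.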

Variant	protein stability index
DYFPSEDFYRCGYCKNESGSFSNG [R21F]	2.39
DYFPSEDFYRCGYCKNESGSQSNG [R21Q]	2.67
DYFPSEDFYRCGYCKNESGSNSNG [R21N]	2.47
DYFPSEDFYRCGYCKNESGSSSNG [R21S]	2.22
DYFPSEDFYRCGYCKNESGSYSNG [R21Y]	1.79
DYFPSEDFYRCGYCKNESGSASNG [R21A]	2.54
DYFPSEDFNRCGYCKNESGSRSNG [Y9N]	2.18
DYFPSEDFMRCGYCKNESGSRSNG [Y9M]	2.69
DYFPSEDFCRCGYCKNESGSRSNG [Y9C]	3.12
DYFPSEDFVRCGYCKNESGSRSNG [Y9V]	2.21
DYFPSEDFYRCGYCKNESASRSNG [G19A]	1.61
DYFPSEDFYRCGYCKNESWSRSNG [G19W]	3.29
DYFPSEDFYRCGYCKNESDSRSNG [G19D]	2.45
DYFPSEDFYRCGYCKNESTSRSNG [G19T]	2.04
DYFPSEDFYRCGYCKNESNSRSNG [G19N]	1.84
DYFPSEDFYRCGYCKNESQSRSNG [G19Q]	2.9
DYFPSEDFYRCGYCKNESSSRSNG [G19S]	2.15
DYFPSEDFYRCGYCKNESISRSNG [G19I]	2.65
DYFPGEDFYRCGYCKNESGSRSNG [S5G]	2.17
DYFPLEDFYRCGYCKNESGSRSNG [S5L]	1.61
DYFPREDFYRCGYCKNESGSRSNG [S5R]	1.7
DYFPAEDFYRCGYCKNESGSRSNG [S5A]	2.19
DYFPKEDFYRCGYCKNESGSRSNG [S5K]	2.02
DYFPSEDFYRCGYCKHESGSRSNG [N16H]	2
DYFPSEDFYRCGYCKMESGSRSNG [N16M]	2.62

Variant	protein stability index
DYFPSEDFYRCGYCKLESGSRSNG [N16L]	1.53
DYFPSEDFYRCGYCKYESGSRSNG [N16Y]	2.43
DYFPSEDFYRCGYCKIESGSRSNG [N16I]	1.74
DYFPSEDFYRCGYCKQESGSRSNG [N16Q]	1.77
DYFPSEDFYRCGYCKTESGSRSNG [N16T]	1.97
DYFPSEDFYRCGYCKNESGSRSEG [N23E]	2.29
DYFPSEDFYRCGYCKNESGSRSFG [N23F]	1.26
DYFPSEDFYRCGYCKNESGSRSVG [N23V]	1.25
DYFPSEDFYRCGYCKNESGSRSKG [N23K]	2.51
DYFPSEDFYRCGYCKNESGSRSLG [N23L]	2.65
DYFPSEDFYRCGYCKNESGSRSMG [N23M]	1.52
DYFPSEDFYRCGYCKNESGSRSPG [N23P]	1.91
DYFPSEDFYRCGYCKNESGSRSRG [N23R]	1.76
DYFPSEDFYRCGYCKNEPGSRSNG [S18P]	2.2
DYFPSEDFYRCGYCKNEVGSRSNG [S18V]	2.17
DYFPSEDFYRCGYCKNEMGSRSNG [S18M]	1.24
DYFPSEDFYRCGYCKNEIGSRSNG [S18I]	1.53
DYFPSEDFYRCGYCKNESGARSNG [S20A]	2.83
DYFPSEDFYRCGYCKNESGPRSNG [S20P]	2.36
DYFPSEDFYRCGYCKNESGQRSNG [S20Q]	1.94
DYFPSEDFYRCGYCKNESGIRSNG [S20I]	2.01
DYFPSEDFYRCGYCKNESGYRSNG [S20Y]	1.75
DYFPSEDFYRCGYCWNESGSRSNG [K15W]	2.25
DYFPSEDFYRCGYCENESGSRSNG [K15E]	2.46
DYFPSEDFYRCGYCCNESGSRSNG [K15C]	2.17

Variant	protein stability index
DYFPSEDFYRCGYCNNESGSRSNG [K15N]	2.28
DYFPSEDFYRCGYCQNESGSRSNG [K15Q]	2.65
DYFPSEDFYRCGYCRNESGSRSNG [K15R]	1.17
DYFPSEDFYMCGYCKNESGSRSNG [R10M]	2.21
DYFPSEDFYCCGYCKNESGSRSNG [R10C]	1.43
DYFPSEDFYTCGYCKNESGSRSNG [R10T]	2.2
DYFPSEDFYPCGYCKNESGSRSNG [R10P]	2.47
DYFPSEDFYRCGYQKNESGSRSNG [C14Q]	3.69
DYFPSEDFYRCGYNKNESGSRSNG [C14N]	3.4
DYFPSEDFYRCGYKKNESGSRSNG [C14K]	3.65
DYFPSEDFYRCGYSKNESGSRSNG [C14S]	3.94
DYFPSEDFYRCGYDKNESGSRSNG [C14D]	4.47
DYFPSEDFYRCGYEKNESGSRSNG [C14E]	4.6
DYFPSEDFYRCGYHKNESGSRSNG [C14H]	4.16
FYFPSEDFYRCGYCKNESGSRSNG [D1F]	1.84
VYFPSEDFYRCGYCKNESGSRSNG [D1V]	2.58
WYFPSEDFYRCGYCKNESGSRSNG [D1W]	3.35
CYFPSEDFYRCGYCKNESGSRSNG [D1C]	2.26
NYFPSEDFYRCGYCKNESGSRSNG [D1N]	2
QYFPSEDFYRCGYCKNESGSRSNG [D1Q]	1.89
DYFPSEDFYRCGYCKNESGSRKNG [S22K]	2.02
DYFPSEDFYRCGYCKNESGSRGNG [S22G]	2.04
DYFPSEDFYRCGYCKNESGSRANG [S22A]	1.85
DPFPSEDFYRCGYCKNESGSRSNG [Y2P]	2.64
DEFPSEDFYRCGYCKNESGSRSNG [Y2E]	2.63

Variant	protein stability index
DCFPSEDFYRCGYCKNESGSRSNG [Y2C]	2.82
DNFPSEDFYRCGYCKNESGSRSNG [Y2N]	2.36
DAFPSEDFYRCGYCKNESGSRSNG [Y2A]	3.05
DLFPSEDFYRCGYCKNESGSRSNG [Y2L]	2.43
DYFPSELFYRCGYCKNESGSRSNG [D7L]	2.29
DYFPSEDFYRCGQCKNESGSRSNG [Y13Q]	3.52
DYFPSEDFYRCGGCKNESGSRSNG [Y13G]	3.4
DYFPSEDFYRCGTCKNESGSRSNG [Y13T]	3.93
DYFPSEDFYRCGLCKNESGSRSNG [Y13L]	2.03
DYFPSEDFYRCGFCKNESGSRSNG [Y13F]	2.4
DYFPSEDFYRCGPCKNESGSRSNG [Y13P]	3.75
DYFPSEDFYRCGWCKNESGSRSNG [Y13W]	3.73
DYFPSEDFYRPGYCKNESGSRSNG [C11P]	4.15
DYFPSEDFYREGYCKNESGSRSNG [C11E]	4.92
DYFPSEDFYRWGYCKNESGSRSNG [C11W]	4.12
DYFPSEDFYRRGYCKNESGSRSNG [C11R]	3.9
DYFPSEDFYRDGYCKNESGSRSNG [C11D]	4.21
DYFPSEDFYRIGYCKNESGSRSNG [C11I]	3.83
DYFSSEDFYRCGYCKNESGSRSNG [P4S]	3.09
DYFKSEDFYRCGYCKNESGSRSNG [P4K]	1.92
DYFQSEDFYRCGYCKNESGSRSNG [P4Q]	2.77
DYFDSEDFYRCGYCKNESGSRSNG [P4D]	2.07
DYFLSEDFYRCGYCKNESGSRSNG [P4L]	2.53
DYFVSEDFYRCGYCKNESGSRSNG [P4V]	1.18
DYFPSEDFYRCMYCKNESGSRSNG [G12M]	2.77

Variant	protein stability index
DYFPSEDFYRCEYCKNESGSRSNG [G12E]	3.04
DYFPSEDFYRCFYCKNESGSRSNG [G12F]	3.18
DYFPSEDFYRCSYCKNESGSRSNG [G12S]	3.15
DYFPSEDFYRCQYCKNESGSRSNG [G12Q]	2.64
DYFPSEDVYRCGYCKNESGSRSNG [F8V]	3.1
DYFPSEDNYRCGYCKNESGSRSNG [F8N]	2.16
DYFPSEDTYRCGYCKNESGSRSNG [F8T]	2.63
DYFPSEDRYRCGYCKNESGSRSNG [F8R]	2.91
DYFPSEDFYRCGYCKNESGSRSNA [G24A]	1.88
DYFPSEDFYRCGYCKNESGSRSNV [G24V]	1.75
DYFPSEDFYRCGYCKNESGSRSNP [G24P]	3
DYFPSEDFYRCGYCKNESGSRSNQ [G24Q]	1.93
DYFPSEDFYRCGYCKNESGSRSNM [G24M]	1.89
DYFPSEDFYRCGYCKNESGSRSNF [G24F]	1.92
DYFPSEDFYRCGYCKNHSGSRSNG [E17H]	2.14
DYFPSEDFYRCGYCKNSSGSRSNG [E17S]	1.83
DYFPSEDFYRCGYCKNWSGSRSNG [E17W]	1.78
DYFPSEDFYRCGYCKNISGSRSNG [E17I]	1.38
DYFPSTDFYRCGYCKNESGSRSNG [E6T]	2.94
DYFPSFDFYRCGYCKNESGSRSNG [E6F]	1.56
DYFPSGDFYRCGYCKNESGSRSNG [E6G]	1.65
DYLPSEDFYRCGYCKNESGSRSNG [F3L]	1.83
DYGPSEDFYRCGYCKNESGSRSNG [F3G]	3.35
DYHPSEDFYRCGYCKNESGSRSNG [F3H]	1.8
DYVPSEDFYRCGYCKNESGSRSNG [F3V]	2.13

Variants of: B2
Assay: as above
Conditions: c terminus: a fixed tail appended

Variant	protein stability index
LNFQIEHHLFPTMPRCNYHKVAPL [H16C]	3.19
LNFQIEHHLFPTMPRGNYHKVAPL [H16G]	1.24
LNFQIEHHLFPTMPRHNYHYVAPL [K20Y]	3.23
LNFQIEHHLFPTMPRHNYHDVAPL [K20D]	2.29
LGFQIEHHLFPTMPRHNYHKVAPL [N2G]	1.24
LPFQIEHHLFPTMPRHNYHKVAPL [N2P]	1.65
LVFQIEHHLFPTMPRHNYHKVAPL [N2V]	2.5
LSFQIEHHLFPTMPRHNYHKVAPL [N2S]	1.88
LDFQIEHHLFPTMPRHNYHKVAPL [N2D]	2.91
LNFQIEHHLFPTLPRHNYHKVAPL [M13L]	1.62
LNFQIEHHLFPTYPRHNYHKVAPL [M13Y]	2.83
LNFQIEHHLFPTEPRHNYHKVAPL [M13E]	1.35
LNFQIEHHLFPTMPRHNYRKVAPL [H19R]	1.88
LNFQIEHHLFPTMPRHNYFKVAPL [H19F]	1.81
LNFQIEHHLFPFMPRHNYHKVAPL [T12F]	2.79
LNFQIEHHLFPCMPRHNYHKVAPL [T12C]	2.74
LNFQIEHHLFPTMPRHNYHKVPPL [A22P]	2.1
LNFQIEHHLFPTMPRHNYHKVAPM [L24M]	1.81
LNFQIEHHLFPTMPRHNYHKVAPK [L24K]	1.79
LNFQIEHHLFPTMPRHNYHKPAPL [V21P]	2.39
LNFQIEHHLFPTMPRHNYHKWAPL [V21W]	2.14

Variant	protein stability index
LNFQIEHHLFPTMPRHNYHKFAPL [V21F]	2.85
LNFQIEHHLFPTMPRHEYHKVAPL [N17E]	2.35
LNFQIEHHLFPTMPRHYYHKVAPL [N17Y]	2.39
LNFQIEHHLFPTMPRHWYHKVAPL [N17W]	2.84
LNFQIEHHLFPTMPRHIYHKVAPL [N17I]	1.5
LNFQIEHHLFPTMPRHFYHKVAPL [N17F]	2.83
LNFQIEHHLFSTMPRHNYHKVAPL [P11S]	2
LNFQIEHHLFRTMPRHNYHKVAPL [P11R]	1.81
LNFQIEHHLYPTMPRHNYHKVAPL [F10Y]	2.17
LNFQIEHHLMPTMPRHNYHKVAPL [F10M]	1.37
LNFHIEHHLFPTMPRHNYHKVAPL [Q4H]	2.67
LNFPIEHHLFPTMPRHNYHKVAPL [Q4P]	1.24
LNFQIEHHLFPTMCRHNYHKVAPL [P14C]	3.64
LNFQIEHHLFPTMHRHNYHKVAPL [P14H]	1.9
LNFQIEHHLFPTMPRHNCHKVAPL [Y18C]	2.42
LNFQIEHHLFPTMPRHNHHKVAPL [Y18H]	1.6
LNFQIEHHLFPTMPHHNYHKVAPL [R15H]	1.84
LNFQIEHHLFPTMPWHNYHKVAPL [R15W]	2.99
LNFQIEHHLFPTMPDHNYHKVAPL [R15D]	1.98
LNFQIEHHLFPTMPAHNYHKVAPL [R15A]	3.26
LNFQIEHHLFPTMPYHNYHKVAPL [R15Y]	3.31

Variant	protein stability index
LNFQIFHHLFPTMPRHNYHKVAPL [E6F]	3.4
LNFQIPHHLFPTMPRHNYHKVAPL [E6P]	2.11
LNFQINHHLFPTMPRHNYHKVAPL [E6N]	1.19
GNFQIEHHLFPTMPRHNYHKVAPL [L1G]	2.63
QNFQIEHHLFPTMPRHNYHKVAPL [L1Q]	2.31
LNFQIESHLFPTMPRHNYHKVAPL [H7S]	1.81
LNFQIEKHLFPTMPRHNYHKVAPL [H7K]	2.75
LNFQIEDHLFPTMPRHNYHKVAPL [H7D]	1.93
LNFQIEHHLFPTMPRHNYHKVAGL [P23G]	2.97
LNCQIEHHLFPTMPRHNYHKVAPL [F3C]	2.22
LNVQIEHHLFPTMPRHNYHKVAPL [F3V]	1.96
LNPQIEHHLFPTMPRHNYHKVAPL [F3P]	1.95
LNFQCEHHLFPTMPRHNYHKVAPL [I5C]	2.33
LNFQGEHHLFPTMPRHNYHKVAPL [I5G]	2.01
LNFQAEHHLFPTMPRHNYHKVAPL [I5A]	1.83
LNFQIEHHKFPTMPRHNYHKVAPL [L9K]	1.36
LNFQIEHHAFPTMPRHNYHKVAPL [L9A]	1.39
LNFQIEHNLFPTMPRHNYHKVAPL [H8N]	2.06
LNFQIEHALFPTMPRHNYHKVAPL [H8A]	1.87
LNFQIEHMLFPTMPRHNYHKVAPL [H8M]	2.14
LNFQIEHSLFPTMPRHNYHKVAPL [H8S]	2.12
